The values below come from US20070148774A1 (MEDICAL RESEARCH COUNCIL, published 2007).

Assay [1] deals with T1, bovine serum albumin (bovine, UniProt P02769 25-607).
T1 construct: also called BSA
As to the kind of experiment: phage ELISA (FIG. 51, clone 3).

For assay [2], the target named is T2, hen egg-white lysozyme (hen, UniProt P00698 19-147).
T2 construct: also called HEL; hen egg lysozyme
As to the kind of experiment: phage ELISA on plates coated with HEL; signal on BSA subtracted. For orientation: In an ELISA, binding on a coated surface is turned into a signal by an enzyme label.

The target of assay [3] is T3, turkey egg-white lysozyme (turkey, UniProt P00703 19-147).
T3 construct: also called turkey egg lysozyme; turkey lysozyme
T3 sequence (P00703 19-147): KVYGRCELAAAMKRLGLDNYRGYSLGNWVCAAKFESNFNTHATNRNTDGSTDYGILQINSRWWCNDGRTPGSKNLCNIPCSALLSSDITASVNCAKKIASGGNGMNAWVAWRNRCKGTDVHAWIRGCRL
As to the kind of experiment: phage ELISA on plates coated with TEL; signal on BSA subtracted.

Assay [4] concerns the target T3, turkey egg-white lysozyme. Kind of assay: phage ELISA on turkey egg white lysozyme after 4 rounds of selection.
Assay [5] concerns the target T1, bovine serum albumin. As to the kind of experiment: phage ELISA (FIG. 51, clone 9).
The target of assay [6] is T1, bovine serum albumin. As to the kind of experiment: phage ELISA, antigens coated at 200 µg/ml, average absorbance of duplicates after 10 minutes.
Method: (§1) 2×10¹⁰ phage transducing units were added to the antigen coated plates in phosphate buffered saline (PBS) containing 2% skimmed milk powder (MPBS). Plates were washed between each step with three rinses of 0.5% Tween-20 in PBS followed by three rinses of PBS.
ELISA plates were coated at 37° C. in 50 mM NaHCO3 at a protein concentration of 200 μg/ml.
The target of assay [7] is T4, human lysozyme (human, UniProt P61626 19-148).
T4 construct: also called HUL
T4 sequence (looked up): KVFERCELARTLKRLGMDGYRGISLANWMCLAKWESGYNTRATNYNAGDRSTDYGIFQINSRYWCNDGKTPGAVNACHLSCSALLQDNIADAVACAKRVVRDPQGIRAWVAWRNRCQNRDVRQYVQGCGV
Kind of assay: phage ELISA, antigen coated at 1 mg/ml, sheep anti-M13 serum.
Method: Before use, this solution was removed, the plate rinsed several times in PBS and incubated with 200 ul of 2% milk powder/PBS for 1 hour. After rinsing several times with PBS, 100 ul of the test samples were added and incubated for 1 hour. Plates were washed (3 rinses in 0.05% Tween 20/PBS followed by 3 rinses in PBS alone). Bound phage antibodies were detected by adding 200 ul/well of a 1/1000 dilution of sheep anti-M13 polyclonal antiserum (gift from G. Winter, although an equivalent antibody can be readily made by one skilled in the art using standard methodologies) in 2% milk powder/PBS and incubating for 1 hour. After washing as above, plates were incubated with biotinylated anti-sheep antibody (Amersham International) for 30 minutes. Plates were washed as above, and incubated with streptavidin-horseradish peroxidase complex (Amersham International).
as §1

Assay [8] has as its target T1, bovine serum albumin. As to the kind of experiment: phage ELISA (FIG. 51, clone 1).

T1 sequence (P02769 25-607 limits assumed): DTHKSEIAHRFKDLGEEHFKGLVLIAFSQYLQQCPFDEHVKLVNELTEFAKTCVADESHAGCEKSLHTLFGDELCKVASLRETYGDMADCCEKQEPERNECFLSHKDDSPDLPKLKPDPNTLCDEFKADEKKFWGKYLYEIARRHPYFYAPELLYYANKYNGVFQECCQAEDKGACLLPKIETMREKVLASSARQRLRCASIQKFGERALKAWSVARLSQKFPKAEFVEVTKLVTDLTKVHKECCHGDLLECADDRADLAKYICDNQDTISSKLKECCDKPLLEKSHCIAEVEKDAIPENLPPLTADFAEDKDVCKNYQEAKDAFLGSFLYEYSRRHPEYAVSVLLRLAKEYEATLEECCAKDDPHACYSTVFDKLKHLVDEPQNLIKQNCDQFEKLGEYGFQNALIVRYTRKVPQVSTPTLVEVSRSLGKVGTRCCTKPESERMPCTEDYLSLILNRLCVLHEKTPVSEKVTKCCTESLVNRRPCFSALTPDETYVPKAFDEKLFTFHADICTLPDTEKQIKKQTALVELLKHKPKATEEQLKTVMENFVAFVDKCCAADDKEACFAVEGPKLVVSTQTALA
T2 sequence (P00698 19-147 limits assumed): as the sequence (P00703 19-147) above, with Y3F, L15H, H41Q, K73R, A99V, G101D, H121Q counted along it

B1: clone MF1 (clone 3 of FIG. 51): scFv of D1.3 VH with a light chain selected from the VLK library of an unimmunised mouse (scFv)
scFv: QVQLQESGPGLVAPSQSLSITCTVSGFSLTGYGVNWVRQPPGKGLEWLGMIWGDGNTDYNSALKSRLSISKDNSKSQVFLKMNSLHTDDTARYYCARERDYRLDYWGQGTTVTVSSGGGGSGGGGSGGGGSDIELTQSPSSLSASLGERVSLTCRASQDIGSSLNWLQQEPDGTIKRLIYATSSLDSGVPKRFSGSRSGSDYSLTISSLESEDFVDYYCLQYASSPWTFGGGTKLELKR
notes: also called M1F; D1.3 M1F; not shown: fd gene III protein (g3p), the phage display partner fused after the scFv through the NotI AAA junction
In the case of B1, the results for the binding result in assay [1], in assay [2] and in assay [3] were “no binding”, “binds” and “binds”, respectively.

B2: lysozyme binder scFv from the unimmunized human library (VH13.1 / VL13.1), on phage (scFv, V domains shown)
VH: QVQLVQSGAEVKKPGQSLMISCQGSGYSFSNYWIGWVRQMPGKGLEWMGIIYPGDSDTRYSPSFQGQVTISADKSISTAYLHWSSLKASDTALYYCARLVGGTPAYWGQGT
VL: HVILTQPASVSGSPGQSITISCTGSSRDVGGYNYVSWYQHHPGKAPKLLISEVTNRPSGVSNRFSGSKSGNTASLTISGLQAEDEADYFCASYTSSKTYVFGG
notes: scFv with (Gly4Ser)3 linker on pHEN1 phagemid particles
With B2, the binding result in assay [4] is listed as “binds”.

B3: clone M21 (clone 9 of FIG. 51): scFv of D1.3 VH with a light chain selected from the VLK library of an unimmunised mouse (scFv)
scFv: QVQLQESGPGLVAPSQSLSITCTVSGFSLTGYGVNWVRQPPGKGLEWLGMIWGDGNTDYNSALKSRLSISKDNSKSQVFLKMNSLHTDDTARYYCARERDYRLDYWGQGTTVTVSSGGGGSGGGGSGGGGSDIELTQSPALMAASPGEKVTITCSVSSSISSSNLHWYQQKSETSPKPWIYGTSNLASGVPVRFSGSGSGTSYSLTISSMEAEDAATYYCQQWSSYPLTFGAGTKLEIKR
notes: not shown: fd gene III protein (g3p), the phage display partner fused after the scFv through the NotI AAA junction
On to B3, for which the binding result in assay [2] is on record as “binds”; in assay [5] it was “no binding”; in assay [3], “binds”.

B4: fdTscFvD1.3 (phage antibody displaying the single chain Fv of anti-lysozyme antibody D1.3) (scFv, not shown: large carriers)
scFv: QVQLQESGPGLVAPSQSLSITCTVSGFSLTGYGVNWVRQPPGKGLEWLGMIWGDGNTDYNSALKSRLSISKDNSKSQVFLKMNSLHTDDTARYYCARERDYRLDYWGQGTTVTVSSGGGGSGGGGSGGGGSDIELTQSPASLSASVGETVTITCRASGNIHNYLAWYQQKQGKSPQLLVYYTTTLADGVPSRFSGSGSGTQYSLKINSLQPEDFGSYYCQHFWSTPRTFGGGTKLEIK
modifications: scFv displayed on fd phage as a fusion near the N-terminus of g3p
notes: also called pAb D1.3; pAb (D1.3)
As to B4, the binding result in assay [6] is recorded as “no binding (tested: one amount, as in example 6)”; in assay [7], “no binding”.

B5: fdCAT2 scFvD1.3 phage (scFv, not shown: large carriers)
scFv: B4 scFv
modifications: scFv displayed on fd phage as an N-terminal fusion to g3p
notes: also called original D1.3 scFv
As for B5, in assay [8], the binding result is on record as “no binding”.
